Measured values published in the RNAGym collection of RNA variant scans (doi:10.7554/elife.90254).

B1: LINE1-full (parent)
chain: UACGUAGGUGGUUUUCCCCUGAUAGUGCUAAGGGGGCCUGGAAGUUUGGACUGGGCAGAGCUCAACACAGCGUGGCAAAGUGGCUGUGGCUAGACUGCCUCUCUGGAUUCCUCGUCACUCAGCAGGGCAUCUCUGAGAGAAAUGCC

Variants of: B1
Experiment: self-cleavage, relative activity (ratio to wild type); higher = more cleavage; in vitro, sequencing; the parent is a self-cleaving ribozyme
With U5A U62C the self-cleavage was 0.05. Variant U5A A22G has a self-cleavage of 0.73. Variant G4C U87C has a self-cleavage of 0.74. Variant U5A U115C has a self-cleavage of 0.5. U5C U134A gave a self-cleavage of 0.62. U5C U134C gave a self-cleavage of 0.33. Work on G4C U115A yielded a self-cleavage of 1.51. Variant G4U U73C has a self-cleavage of 2.45. In the case of U5A U96C, the self-cleavage is reported as 0.45. For G4U A69G, the self-cleavage was 0.32. Variant U5C C76U has a self-cleavage of 1.88. U5A U100A showed a self-cleavage of 0.51. For U5A U100C, the self-cleavage was 0.82. With U5C A57G the self-cleavage was 0.93. With U5C A57U the self-cleavage was 0.29. Variant U5C C84U has a self-cleavage of 0.18. With G4U C110A the self-cleavage was 1.56. Variant G4U U130A has a self-cleavage of 1.16. Work on U5A U39A yielded a self-cleavage of 0.8. Work on U5A U52A yielded a self-cleavage of 0.52. U5A U87A gave a self-cleavage of 0.15. For A6C A129U, the self-cleavage was 0.77. U5C U23C gave a self-cleavage of 0.83. U5A U132C gave a self-cleavage of 1.25. With U5C U87A the self-cleavage was 0.15. Variant U5C U109A has a self-cleavage of 0.74. In the case of U5C U46A, the self-cleavage is reported as 1.29. Variant U5A A141G has a self-cleavage of 1.23. U5C G40A gave a self-cleavage of 0.42. Variant U5A U46A has a self-cleavage of 0.82. U5A U46C gave a self-cleavage of 1.03. For U5C U62A, the self-cleavage was 0. U5C A142G gave a self-cleavage of 1.15. U5C C111U showed a self-cleavage of 0.85. Variant U5C G35U has a self-cleavage of 1.19. In the case of U5C U15A, the self-cleavage is reported as 0.63. G4U U100C gave a self-cleavage of 1.73. Variant U5C U143C has a self-cleavage of 0.11. In the case of U5C U14C, the self-cleavage is reported as 0.99. With U5A U130C the self-cleavage was 0.96. In the case of U5A A42G, the self-cleavage is reported as 1.15. With U5C G34U the self-cleavage was 0.82. U5C U52G showed a self-cleavage of 1.23. U5C U52A gave a self-cleavage of 1.02. Variant U5C U52C has a self-cleavage of 1.23. Work on U5C A50U yielded a self-cleavage of 0.64. U5C U26C gave a self-cleavage of 1.23. In the case of U5C A65G, the self-cleavage is reported as 0.15. With U5C A65U the self-cleavage was 0.26. With U5G A64C the self-cleavage was 0.19. U5C A141G showed a self-cleavage of 0.92. Work on U5C C120U yielded a self-cleavage of 1.26. U5A A79G showed a self-cleavage of 0.87. U5A A79U showed a self-cleavage of 0.77. U5G U119C gave a self-cleavage of 1.02. For G4C U112C, the self-cleavage was 1.42. U5C A43G gave a self-cleavage of 1.03. Variant U5C A43U has a self-cleavage of 1.48. U5C C37U showed a self-cleavage of 1.02. With U5C A94C the self-cleavage was 0. In the case of U5C A94U, the self-cleavage is reported as 0.76. Variant U5A U14A has a self-cleavage of 1.15. In the case of U5A U14C, the self-cleavage is reported as 0.85. Work on U5C U96C yielded a self-cleavage of 0.26. For U5C U96A, the self-cleavage was 0.12. Variant U5A U85G has a self-cleavage of 0.16. For U5A U85C, the self-cleavage was 0.2. Work on U5G U112A yielded a self-cleavage of 0. With U5A A124U the self-cleavage was 1.2. In the case of U5A A124G, the self-cleavage is reported as 1.75. In the case of U5C G60A, the self-cleavage is reported as 0.08. Variant U5C U119C has a self-cleavage of 1.41. In the case of U5C A92G, the self-cleavage is reported as 0. In the case of U5C U47A, the self-cleavage is reported as 0.92. For U5C U47C, the self-cleavage was 0.67. With U5C A140U the self-cleavage was 0.86. In the case of U5C C18A, the self-cleavage is reported as 0.67. Variant U5A G40A has a self-cleavage of 1.01. For U5A A138G, the self-cleavage was 0.75. U5C A117U showed a self-cleavage of 1.03. In the case of U5C A117G, the self-cleavage is reported as 0.81. U5A U26A showed a self-cleavage of 1.37. U5A G34U gave a self-cleavage of 0.88.
